Data from publication PMC12120064.

Legend:
Assay in all cases: CEACAM1 co-IP (PLA also mentioned)
Settings in all cases: reference: full-length 4L CEACAM1; sites Y493,Y520
SHP-1 = SHP-1 (UniProt P29350)
filamin A (FLNA) = filamin A (FLNA) (UniProt P21333)
SYK = SYK (UniProt P43405)

Measured: binding against the reference

CEACAM1 (CEACAM1-4L) (from UniProt P13688) Y493F/Y520F
weaker: all assays above
